# Source: US20240343803A1 (SHANDONG SIMCERE BIOPHARMACEUTICAL, published 2024)
# Like-named read-outs stand apart in the source and are kept apart here.
# T1: human PVRIG-mFc protein (Acro, PVG-H5253) (human, UniProt Q6DKI7 41-171, limits assumed)
# T1 construct: extracellular domain; Bought protein; also called PVRIG-ECD-mFc; not shown: mouse Fc tag of the bought protein
# T1 sequence (looked up): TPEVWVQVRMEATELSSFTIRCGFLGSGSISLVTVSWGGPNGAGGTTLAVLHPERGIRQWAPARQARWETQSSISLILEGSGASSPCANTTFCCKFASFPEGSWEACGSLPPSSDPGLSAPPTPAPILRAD
# T2: human PVRIG (AcroBiosystems, Cat NO. PVG-H52H4) (human, UniProt Q6DKI7 41-171, limits assumed)
# T2 construct: Bought protein with His tag; also called human PVRIG-his; human PVRIG protein
# T2 sequence (looked up): T1 sequence (looked up)
# T3: cynomolgus monkey PVRIG (Novoprotein, Cat NO. C09B) (cynomolgus monkey, UniProt A0A2K5WVV8 41-171)
# T3 construct: Bought protein; construct not described; also called cynomolgus monkey PVRIG protein
# T3 sequence: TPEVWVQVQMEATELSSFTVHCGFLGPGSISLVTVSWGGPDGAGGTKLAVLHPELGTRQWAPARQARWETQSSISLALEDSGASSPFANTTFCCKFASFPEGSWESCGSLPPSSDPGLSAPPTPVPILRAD
# B1: COM701-hIgG1 (antibody, V domains shown)
# VH: QVQLVQSGAEVKKPGASVKVSCKASGYTFTDYNINWVRQAPGQGLEWMGYIYPYIGGSGYAQKFQGRVTMTRDTSTSTVYMELSSLRSEDTAVYYCAREDKTARNAMDYWGQGTLVTVSS
# VL: DIQMTQSPSSLSASVGDRVTITCRVSENIYSNLAWYQQKPGKAPKLLIYEATNLAEGVPSRFSGSGSGTDFTLTISSLQPEDFATYYCQHFWGTPYTFGQGTKLEIK
# notes: Anti-PVRIG positive control
# B2: PVRIG-A105-H1 (Fc fusion)
# chain: EVQLVESGGGLVQPGGSLRLSCAASGRTFDRHTMSWFRQAPGKEREFVATASRIPGDTYYVDSVKGRFTISRDNAKNSLYLQMNSLRAEDTAVYYCAATSAYCSEVDCYEKGSWYDNWGQGTMVTVSS
# notes: VHH-human IgG1 Fc format is stated for the parental VHH antibodies; not restated for the humanized variants; also called A105.VH1; not shown: human IgG1 hinge-CH2-CH3 (Fc)
# Assays:
# [1] = target: T1, human PVRIG-mFc protein (Acro, …); test: HTRF competition, PVRIG-mFc with Bio-CD112-His as competitor
# Procedure: (§1) PVRIG-mFc (ACRO Biosystems, Cat NO. PVG-H5253) and Bio-CD112-His (Sino Biological, Cat NO. 10005-H08H) were diluted to 0.5 μg/mL, respectively. Streptavidin-Tb cryptate (Cisbio) and PAb anti mouse IgG-XL665 (Cisbio) were diluted to 20 μg/mL and 0.8 μg/mL, respectively. The tested antibodies were diluted from the initial concentration of 120 nM, by 3-fold serial dilution for 12 concentration points. The diluted PVRIG-mFc, Bio-CD112-His, Streptavidin-Tb Crytate and PAb anti mouse IgG-XL665 were mixed at 1:1:1:1, and added into a 384-well plate (PE, Cat NO. 6007299), 10 μL/well. 10 μL/well of serially diluted antibodies was added into wells, centrifuged at 1500 rpm for 30s, and incubated at 37° C. for 1 hour. The plate was read on the microplate reader (PE, Envision2105) with wavelengths of 665 nm and 620 nm. […] A Four Parameter Logistic Fit was performed with the molar concentration of the antibodies as the abscissa and Ratio as the ordinate to calculate IC50. The smaller the IC50, the better the effect of the antibody block the binding of PVRIG to PVRL2. The positive controls in this experiment are COM701-hIgG1, PVRIG-A50-H1b and PVRIG-A105-H1; and the negative control antibody is anti-Fluorescein-hIgG1 (in house). The effect of 4 humanized bispecific antibodies blocking the binding of PVRIG to PVRL2 is shown in FIG. 51 and Tables 44 and 45. […] The blocking effect of LC-BsAb-002 is better than its corresponding monoclonal antibody (PVRIG-A50-H1b) and the positive control (COM701-hIgG1). The blocking effect of LC-BsAb-006 is better than its corresponding monoclonal antibody (PVRIG-A50-H1b), but slightly weaker than the positive control (COM701-hIgG1). The blocking effects of LC-BsAb-009 and LC-BsAb-010 are not as good as their corresponding monoclonal antibodies (PVRIG-A105-H1) and the positive control (COM701-hIgG1).
# [2] = target: T2, human PVRIG (AcroBiosystems, Cat NO. …); test: ELISA, coated human PVRIG
# Procedure: (§2) The ELISA plate was pre-coated with 50 μL/well of 1.0 μg/mL human PVRIG (AcroBiosystems, Cat NO. PVG-H52H4) or 50 μL/well of 0.5 μg/mL cynomolgus monkey PVRIG (Novoprotein, Cat NO. C09B). The tested antibodies were serially diluted (initial concentration 13 nM, 3-fold serial dilution, 12 concentration points), added into the plate (50 μL/well) and incubated at 37° C. for 2.0 hours. After washing the plate, the Goat anti-human IgG Fc-HRP (Merck, Cat NO. AP113P) working solution (dilution ratio 1:5000, 50 μL/well) were added into wells and incubated at 37° C. for 1.0 hour. A HRP substrate, TMB (KPL, Cat NO. 5120-0077) was added into wells after washing the plate again and incubated at 37° C. for 10 minutes for color development. After adding a termination solution to terminate the reaction, the absorbance value was read by a microplate reader (PE, Ensight-HH3400). An antibody binding curve was drawn with molar concentration of antibodies as the abscissa and the corresponding OD value as the ordinate. The EC50 value was calculated by using a Four Parameter Logistic Fit (GraphPadPrism9). […] The positive control antibodies are COM701-hIgG1, PVRIG-A50-H1b and PVRIG-A105-H1; and the negative control antibodies are anti-Fluorescein-hIgG1 (in house). The binding results of the 4 humanized bispecific antibodies to human PVRIG protein are shown in FIG. 41 and Tables 40 and 41, and the binding results to cynomolgus monkey PVRIG are shown in FIG. 42 and Tables 40 and 41. […] The binding of LC-BsAb-002 and LC-BsAb-006 to human PVRIG protein is slightly weaker than that of the corresponding monoclonal antibody (PVRIG-A50-H1b) and the positive control (COM701-hIgG1).
# [3] = target: T1, human PVRIG-mFc protein (Acro, …); test: HTRF competition, PVRIG-mFc with Bio-CD112-His as competitor; remark: listed apart in the source
# Procedure: as §1
# [4] = target: T3, cynomolgus monkey PVRIG (Novoprotein, …); test: ELISA, coated cynomolgus PVRIG
# Procedure: as §2
# [5] = target: T3, cynomolgus monkey PVRIG (Novoprotein, …); test: ELISA, coated cynomolgus PVRIG; remark: listed apart in the source
# Procedure: (§3) The ELISA plate was pre-coated with 50 μL/well of 1.0 μg/mL human PVRIG (AcroBiosystems, Cat NO. PVG-H52H4) or 50 μL/well of 0.5 μg/mL cynomolgus monkey PVRIG (Novoprotein, Cat NO. C09B). The tested antibodies were serially diluted (initial concentration 13 nM, 3-fold serial dilution, 12 concentration points), added into the plate (50 μL/well) and incubated at 37° C. for 2.0 hours. After washing the plate, the Goat anti-human IgG Fc-HRP (Merck, Cat NO. AP113P) working solution (dilution ratio 1:5000, 50 μL/well) were added into wells and incubated at 37° C. for 1.0 hour. A HRP substrate, TMB (KPL, Cat NO. 5120-0077) was added into wells after washing the plate again and incubated at 37° C. for 10 minutes for color development. After adding a termination solution to terminate the reaction, the absorbance value was read by a microplate reader (PE, Ensight-HH3400). An antibody binding curve was drawn with molar concentration of antibodies as the abscissa and the corresponding OD value as the ordinate. The EC50 value was calculated by using a Four Parameter Logistic Fit (GraphPadPrism9). The smaller the EC50 value, the stronger the ability of the antibodies binds to human or cynomolgus monkey PVRIG. The positive control antibodies are COM701-hIgG1, PVRIG-A50-H1b and PVRIG-A105-H1; and the negative control antibodies are anti-Fluorescein-hIgG1 (in house). The binding results of the 4 humanized bispecific antibodies to human PVRIG protein are shown in FIG. 41 and Tables 40 and 41, and the binding results to cynomolgus monkey PVRIG are shown in FIG. 42 and Tables 40 and 41. […] The binding of LC-BsAb-002 and LC-BsAb-006 to human PVRIG protein is slightly weaker than that of the corresponding monoclonal antibody (PVRIG-A50-H1b) and the positive control (COM701-hIgG1).
# [6] = target: T2, human PVRIG (AcroBiosystems, Cat NO. …); test: ELISA, coated human PVRIG; remark: listed apart in the source
# Procedure: as §3
# [7] = target: T1, human PVRIG-mFc protein (Acro, …); test: FACS blocking of PVRIG-mFc binding to CHO-K1-CD112 cells; competitor CD112
# Method in brief: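 After a further 30 min at 4° C with Zombie violet-stained CHO-K1-CD112 cells, binding was detected with PE goat anti-mouse IgG Fc (1:250) as mean fluorescence intensity on a BD Canto II. IC50 and curve AUC, taken from four-parameter logistic fits in GraphPad Prism, were expressed relative to a reference antibody as percentages.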
Binder,% relative activity COM701-hIgG1/tested antibody [1],% relative activity PVRIG-A105-H1/tested antibody [1],IC50 [1],% relative activity COM701-hIgG1/tested antibody [5],% relative activity PVRIG-A105-H1/tested antibody [5],EC50 [5],% relative activity COM701-hIgG1/tested antibody [6],% relative activity PVRIG-A105-H1/tested antibody [6],EC50 [6],also measured
B1,100%,93.4%,0.137 nM,100%,66%,0.0363 nM,100%,25.6%,0.248 nM,% relative activity COM701-hIgG1/tested antibody [2]: 100%; % relative activity PVRIG-A50-H1b/tested antibody [2]: 153%; EC50 [2]: 0.248 nM; % relative activity COM701-hIgG1/tested antibody [3]: 100%; % relative activity PVRIG-A50-H1b/tested antibody [3]: 150%; IC50 [3]: 0.137 nM; % relative activity COM701-hIgG1/tested antibody [4]: 100%; % relative activity PVRIG-A50-H1b/tested antibody [4]: 105%; EC50 [4]: 0.0363 nM
B2,107%,100%,0.128 nM,152%,100%,0.0239 nM,390%,100%,0.0636 nM,% AUC to COM701-hIgG4 [7]: 111%; % AUC to SO35-hIgG1 [7]: 64.2%; % AUC to parental Ab [7]: 97.9%; % IC50 to COM701-hIgG4 [7]: 104%; % IC50 to SO35-hIgG1 [7]: 88.1%; % IC50 to parental Ab [7]: 99.7%
